The chains are these.
B1: PfCSS–PfPTRAMP heterodimer (complex)
chain 1: QDEKSVKNICVCDFTDKLNFLPLEKTKILCELKPQYGEDIKIIANKEYEINCMNNSKVFCPLKDTFINNTNIKLYSPKLHFEIKDITHKGKNAALYYLKIDEEASDIFFSCSIKPKQVSGLLEGEVRVNLKKHINEEYSIFNEEEDVHVCDFSKGNLDITPSAGFYLKNSRNVSCIYRVIPNKLFLIKLPKLDIVTEKLLPSIVNCLSEFSFINFTLKHVQEGDNYISFNVIFGEFKKHFNLTCSLDLSDFQQEPCNLGKTANITFIFSK
chain 2: CNLKVRNNWEHFLQVYQNNGNFKMEILEPECTIQKNLPSEEEKEEFIDFDRKELLLHDFVVIKNSQFTDEKTLELYLSKEENNKSYLMLTFYLGDLKLMIGHNSPYEISLILNVATVNKNMSNCKNNSYNIVLLKTTDVFNTSDLEILEGPIQFSLGKSSGAFRINVTNFFLNNTWKAFTKDKISFLIKPEENCYTILENKINKPQLLIEKKTTFYSEWGEWSNCSMDCDHPDNVQIRERECIHPSGDCFKGDLKESRPCIIPLPPCNELFSHKDNST
B2: PfRH5 (natural protein)
chain: ENAIKKTKNQENNLTLLPIKSTEEEKDDIKNGKDIKKEIDNDKENIKTNNAKDHSTYIKSYLNTNVNDGLKYLFIPSHNSFIKKYSVFNQINDGMLLNEKNDVKNNEDYKNVDYKNVNFLQYHFKELSNYNIANSIDILQEKEGHLDFVIIPHYTFLDYYKHLSYNSIYHKSSTYGKYIAVDAFIKKINEAYDKVKSKCNDIKNDLIATIKKLEHPYDINNKNDDSYRYDISEEIDDKSEETDDETEEVEDSIQDTDSNHTPSNKKKNDLMNRAFKKMMDEYNTKKKKLIKCIKNHENDFNKICMDMKNYGTNLFEQLSCYNNNFCNTNGIRYHYDEYIHKLILSVKSKNLNKDLSDMTNILQQSELLLTNLNKKMGSYIYIDTIKFIHKEMKHIFNRIEYHTKIINDKTKIIQDKIKLNIWRTFQKDELLKRILDMSNEYSLFITSDHLRQMLYNTFYSKEKHLNNIFHHLIYVLQMKFNDVPIKMEYFQTYKKNKPLTQ
B3: basigin ectodomain (domain or fragment)
chain: AAGTVFTTVEDLGSKILLTCSLNDSATEVTGHRWLKGGVVLKEDALPGQKTEFKVDSDDQWGEYSCVFLPEPMGTANIQLHGPPRVKAVKSSEHINEGETAMLVCKSESVPPVTDWAWYKITDSEDKALMNGSESRFFVSSSQGRSELHIENLNMEADPGQYRCNGTSSKGSDQAIITLRVRSHLAAL
modifications: labelled with Alexa Fluor 488 (protein-labelling kit)
B4: full-length human basigin (receptor)
chain: AAGTVFTTVEDLGSKILLTCSLNDSATEVTGHRWLKGGVVLKEDALPGQKTEFKVDSDDQWGEYSCVFLPEPMGTANIQLHGPPRVKAVKSSEHINEGETAMLVCKSESVPPVTDWAWYKITDSEDKALMNGSESRFFVSSSQGRSELHIENLNMEADPGQYRCNGTSSKGSDQAIITLRVRSHLAALWPFLGIVAEVLVLVTIIFIYEKRRKPEDVLDDDDAGSAPLKSSGQHQNDKGKNVRQRNSS
modifications: labelled with Alexa Fluor 488 (protein-labelling kit)

Assay [1] has as its target T1, PfRIPR tail (P. falciparum, UniProt O97302 717-1086, N964Q | N1021Q). Put plainly: SPR; replicate 1. A general note: In SPR one partner is held on a chip, and binding of the other changes the refractive index at the surface.
The target of assay [2] is T2, PfRIPR (P. falciparum, UniProt O97302 21-1086). Put plainly: SPR; replicate 1.
Assay [3] has as its target T1, PfRIPR tail. Nature of the assay: SPR; replicate 2.
Assay [4] deals with T1, PfRIPR tail. Put plainly: SPR; replicate 4.
Assay [5] concerns the target T2, PfRIPR. Nature of the assay: SPR; replicate 4.
The target of assay [6] is B4. Put plainly: MST; replicate 2.
In the assay “basigin ectodomain” the target is B3. Put plainly: MST; replicate 2.
Assay [7] addresses T3, PfRCR complex (P. falciparum, UniProt Q8IFM8;O97302). Put plainly: MST; replicate 1.
Assay [8] deals with T3, PfRCR complex. Put plainly: MST; replicate 2.

As for B1, the Kd came out at 2790 nM with PfRIPR tail [1]; 2970 nM with PfRIPR [2]; 5.37 µM with PfRIPR tail [3]; 4.9 µM with PfRIPR tail [4]; 4.32 µM with PfRIPR [5].

Regarding B2, the dissociation constant (Kd) worked out at 171 nM in [6] and 151 nM in the assay with basigin ectodomain.

As to B3, the Kd in the assay with PfRCR complex [7] was found to be 125 nM; in the assay with PfRCR complex [8], 184 nM.

Turning to B4, the Kd in the assay with PfRCR complex [7] stood at 149 nM; with PfRCR complex [8], 181 nM.

Usually Kd stands for the equilibrium constant for the complex coming apart.

The record behind these values is article PMC10794152 (2023).
